Measured values as given in patent publication US20250145705A1 (SHANDONG SIMCERE BIOPHARMACEUTICAL, published 2025).
“And” between values parts separate entries of the source, which are not always exact repeats. Identical values can stand only once.

Experiments:
human GPRC5D [1] = target: T1, human GPRC5D (human, UniProt Q9NZD1 1-345); assay: FACS, HEK293T-hGPRC5D high pool
T1 construct: the cell line is named under assay; also called hGPRC5D; G protein coupled receptor C5 family subtype D

[2] = target: monkey GPRC5D (monkey (cyno)); assay: FACS, HEK293T-cynoGPRC5D high pool
[3] = target: monkey GPRC5D (monkey (cyno)); assay: FACS, CHOK1-cynoGPRC5D high pool
human GPRC5D [4] = target: T1, human GPRC5D; assay: FACS, CHOK1-hGPRC5D high pool
[5] = target: hGPRC5D-LVP protein (human) (UniProt Q9NZD1); assay: competitive ELISA, competitor Biotin-5F11; antibody at 16.67 nM
[6] = target: hGPRC5D-LVP protein (human) (UniProt Q9NZD1); assay: competitive ELISA, competitor Biotin-5F11; antibody at 0.07 nM
[7] = target: hGPRC5D-LVP protein (human) (UniProt Q9NZD1); assay: competitive ELISA, competitor Biotin-5F11; antibody at 1.85 nM
[8] = target: hGPRC5D-LVP protein (human) (UniProt Q9NZD1); assay: competitive ELISA, competitor Biotin-5F11; antibody at 0.21 nM
[9] = target: hGPRC5D-LVP protein (human) (UniProt Q9NZD1); assay: competitive ELISA, competitor Biotin-5F11; antibody at 0.62 nM
[10] = target: hGPRC5D-LVP protein (human) (UniProt Q9NZD1); assay: competitive ELISA, competitor Biotin-5F11; antibody at 50.00 nM
[11] = target: hGPRC5D-LVP protein (human) (UniProt Q9NZD1); assay: competitive ELISA, competitor Biotin-5F11; antibody at 5.56 nM
human GPRC5D [12] = target: T1, human GPRC5D; assay: FACS, RPMI-8226 cells
Method: (§1) The desired cells were scale-up cultured in a T-75 cell culture flask to the logarithmic growth phase. NCI-H929, MolP-8 and RPMI-8226 cells were collected and washed with PBS buffer 2 times. After counting the cells, the cell pellet was resuspended with [PBS+2% (w/v) BSA] blocking solution to 2×10⁶ cells/ml, and added to a 96-well FACS reaction plate at 50 μl/well, and then the chimeric antibody test sample was added at 50 μl/well, and incubated on ice for 1 h. […] The obtained mixture was centrifuged and washed 3 times with a PBS buffer, and FACS (FACS CantoII, purchased from BD Company) was used for detection and result analysis. Data analysis was performed by software (Flowjo) to obtain the mean fluorescence intensity (MFI) of the cells. Then a software (GraphPad Prism8) was used for analysis, the analysis results are shown in Table 9 and FIGS. 9A-9C, 10A-10C and 11A-11C.

[13] = target: hGPRC5D-LVP protein (human) (UniProt Q9NZD1); assay: competitive ELISA, competitor Biotin-5F11; antibody at 0 nM
human GPRC5D [14] = target: T1, human GPRC5D; assay: FACS, MolP-8 cells
human GPRC5D [15] = target: T1, human GPRC5D; assay: FACS, NCI-H929 cells
Method: as §1

T1 sequence (Q9NZD1 whole entry): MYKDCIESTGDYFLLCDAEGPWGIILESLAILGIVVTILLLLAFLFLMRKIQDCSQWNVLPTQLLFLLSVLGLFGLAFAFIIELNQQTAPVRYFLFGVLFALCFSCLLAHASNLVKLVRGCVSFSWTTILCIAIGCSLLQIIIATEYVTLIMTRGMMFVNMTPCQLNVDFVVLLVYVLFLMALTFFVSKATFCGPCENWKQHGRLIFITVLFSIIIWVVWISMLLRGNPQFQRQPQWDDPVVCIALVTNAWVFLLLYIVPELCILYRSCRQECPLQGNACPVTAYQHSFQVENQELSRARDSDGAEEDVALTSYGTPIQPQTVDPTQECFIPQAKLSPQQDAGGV
Sequence of hGPRC5D-LVP protein (human) (Q9NZD1 whole entry): as above
Sequence of monkey GPRC5D (monkey (cyno)) (Q9NZD1 other isoform, or with tags, fused parts or gaps): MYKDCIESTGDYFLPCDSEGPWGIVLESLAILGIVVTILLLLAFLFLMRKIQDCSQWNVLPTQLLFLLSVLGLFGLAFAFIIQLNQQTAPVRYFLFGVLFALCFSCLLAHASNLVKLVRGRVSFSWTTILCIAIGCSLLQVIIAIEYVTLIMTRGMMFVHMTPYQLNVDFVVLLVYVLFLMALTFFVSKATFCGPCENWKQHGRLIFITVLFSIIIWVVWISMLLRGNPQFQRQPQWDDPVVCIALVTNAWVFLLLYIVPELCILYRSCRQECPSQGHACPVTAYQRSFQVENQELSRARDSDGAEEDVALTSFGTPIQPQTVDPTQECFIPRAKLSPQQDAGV

With IgG subtype control (antibody) the Cell mean fluorescence density (human GPRC5D [1]) was 18.9, the Mean fluorescence density [2] was 18.2 and the Mean fluorescence density [3] was 52.9. For the same molecule, the Mean fluorescence intensity (human GPRC5D [4]) was 56.4.

With anti-hel-hIgG1 (antibody) the OD450 [5] was 1.15 and 0.65 and 0.9, the OD450 [6] was 1.24 and 0.62 and 0.92 and the OD450 [7] was 1.16 and 0.7 and 0.89. For the same molecule, the OD450 [8] was 1.27 and 0.68 and 0.87, the OD450 [9] was 1.2 and 0.67 and 0.88 and the OD450 [10] was 1.16 and 0.63 and 0.89. For the same molecule, the OD450 [11] was 1.14 and 0.69 and 0.87, the Maximum mean fluorescence intensity (human GPRC5D [12]) was 108 and 106 and 85 and the OD450 [13] was 1.22 and 0.57 and 0.94. For the same molecule, the Maximum mean fluorescence intensity (human GPRC5D [14]) was 81 and 103 and 90 and the Maximum mean fluorescence intensity (human GPRC5D [15]) was 85 and 74.

B1: 5F11-hIgG1 (antibody, V domains shown)
VH: EVQLVESGGGLVQPGRSLKLSCAASGFSFSNYGMAWVRQAATKGLEWVASISTGGGNTYYRDSVKGRFIVSRDNAKNTQYLQMDSLRSEDTATYYCTRHDRGGLYWGQGVMVTVSS
VL: DIVMTQAPLSVSVTPGESASISCRSSKSLLHSNGITYVYWYFQKPGKSPQVLIYRMSNLASGVPDRFSGSGSETDFTLKISRVEAEDVGIYHCGQLLENPYTFGAGTELELKR
notes: Control antibody; VH and VL from WO 2019154890 A1 recombined into human IgG1 CH and CL expression vectors; also called h5F11-hIgG1; positive control antibody 5F11
In the case of B1, the EC50 (human GPRC5D [12]) is reported as 3.17 nM and 2.86 nM and 6.48 nM and the EC50 (human GPRC5D [15]) is reported as 1.25 nM and 3.5 nM and 1.97 nM.
